Molecular target: human Xkr8 (hXkr8), from hXkr8-TH-mGFP after TEV cleavage (human) (UniProt Q9H6D3)
Assay: cryo-EM structure

Sequence of UniProt Q9H6D3 (Q9H6D3 whole entry): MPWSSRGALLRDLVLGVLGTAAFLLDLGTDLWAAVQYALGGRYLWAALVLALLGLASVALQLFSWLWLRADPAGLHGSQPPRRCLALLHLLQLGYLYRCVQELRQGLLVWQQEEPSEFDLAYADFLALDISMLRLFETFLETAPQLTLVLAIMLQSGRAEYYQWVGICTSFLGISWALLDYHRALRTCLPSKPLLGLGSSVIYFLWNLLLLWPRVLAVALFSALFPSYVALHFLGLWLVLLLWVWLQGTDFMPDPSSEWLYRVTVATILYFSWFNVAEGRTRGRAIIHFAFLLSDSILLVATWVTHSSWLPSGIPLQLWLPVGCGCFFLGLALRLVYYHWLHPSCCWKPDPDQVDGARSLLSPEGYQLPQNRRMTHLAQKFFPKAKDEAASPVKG

hBSGΔ (human basigin lacking Ig-like domain 1, N152Q/N186Q, C-terminal FLAG) (domain or fragment)
stoichiometry N: 1

Reference: article doi:10.1101/2021.05.06.442885
